Test results published in publication PMC11328107.
Blank lines part the entries; values can stand above or below the substance they belong to.

Experiments:
PCSK9 (Homo sapiens) = PCSK9 (Homo sapiens) (UniProt Q8NBP7); settings: cited from earlier work
[1] = target: transferrin receptor 1 (CD71), His‐tagged (UniProt P02786); test: BLI; Octet N1; His-tagged CD71 immobilised on Ni-NTA tip; HFn-Pep2-8 2.5–1580 nM; PBS with 0.02% Tween 20, 0.1% BSA, 0.05% NaN3; KD from plateau values (steady state)
[2] = target: proprotein convertase subtilisin/kexin type 9 (PCSK9) (UniProt Q8NBP7)
[3] = target: proprotein convertase subtilisin/kexin type 9 (PCSK9) (UniProt Q8NBP7); remark: listed apart in the source
[4] = target: His‐tagged PCSK9 of the CircuLex PCSK9‐LDLR in vitro binding assay kit (UniProt Q8NBP7); test: ELISA; CircuLex PCSK9-LDLR binding kit; LDLR-AB domain immobilised on the plate; His-tagged PCSK9 70 ng/mL alone or preincubated with HFn-Pep2-8 1–280 nM; 2 h; detected by biotinylated anti-His antibody
Sequence of His‐tagged PCSK9 of the CircuLex PCSK9‐LDLR in vitro binding assay kit (Q8NBP7 153-692): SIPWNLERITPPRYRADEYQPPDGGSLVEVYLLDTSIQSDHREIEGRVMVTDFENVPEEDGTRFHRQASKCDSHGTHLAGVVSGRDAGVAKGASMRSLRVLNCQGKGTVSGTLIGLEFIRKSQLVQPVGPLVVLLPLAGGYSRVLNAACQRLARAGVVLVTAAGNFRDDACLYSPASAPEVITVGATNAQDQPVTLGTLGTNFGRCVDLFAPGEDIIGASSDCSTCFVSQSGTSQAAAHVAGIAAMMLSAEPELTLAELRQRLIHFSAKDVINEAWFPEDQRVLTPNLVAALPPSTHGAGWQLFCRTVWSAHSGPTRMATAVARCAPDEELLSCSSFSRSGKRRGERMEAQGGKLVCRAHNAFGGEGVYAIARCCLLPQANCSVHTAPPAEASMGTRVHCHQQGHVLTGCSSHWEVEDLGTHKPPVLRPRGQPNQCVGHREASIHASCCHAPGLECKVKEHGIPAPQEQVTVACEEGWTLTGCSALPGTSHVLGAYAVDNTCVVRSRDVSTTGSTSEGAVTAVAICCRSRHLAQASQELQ

Sequence of proprotein convertase subtilisin/kexin type 9 (PCSK9) (Q8NBP7 153-692): as above
Sequence of PCSK9 (Homo sapiens) (Q8NBP7 153-692): as above
Sequence of transferrin receptor 1 (CD71), His‐tagged (P02786 whole entry): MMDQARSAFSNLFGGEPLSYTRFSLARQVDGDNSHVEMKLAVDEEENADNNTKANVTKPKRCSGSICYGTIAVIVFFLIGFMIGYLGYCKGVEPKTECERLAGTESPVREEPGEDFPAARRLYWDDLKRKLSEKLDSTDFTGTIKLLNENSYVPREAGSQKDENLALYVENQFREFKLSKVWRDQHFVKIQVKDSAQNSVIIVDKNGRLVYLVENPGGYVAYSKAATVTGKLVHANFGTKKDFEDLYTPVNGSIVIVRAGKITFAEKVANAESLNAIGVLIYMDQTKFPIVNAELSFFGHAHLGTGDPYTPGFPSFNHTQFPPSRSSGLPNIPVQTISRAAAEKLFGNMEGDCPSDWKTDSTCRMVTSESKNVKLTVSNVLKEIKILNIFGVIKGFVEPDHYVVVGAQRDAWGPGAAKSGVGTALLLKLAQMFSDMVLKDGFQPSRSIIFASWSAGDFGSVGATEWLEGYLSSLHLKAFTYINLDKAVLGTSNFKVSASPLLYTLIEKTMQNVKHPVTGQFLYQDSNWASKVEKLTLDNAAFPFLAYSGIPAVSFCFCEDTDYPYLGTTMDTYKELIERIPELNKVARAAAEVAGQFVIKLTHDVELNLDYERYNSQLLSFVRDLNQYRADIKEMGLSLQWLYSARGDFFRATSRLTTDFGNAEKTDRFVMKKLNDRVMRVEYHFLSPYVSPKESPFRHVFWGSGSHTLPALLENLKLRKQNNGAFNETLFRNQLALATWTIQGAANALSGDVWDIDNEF

Substance: Alirocumab
- Kd (PCSK9 (Homo sapiens)): 0.52 nM

- Kd [1]: 27 nM
Substance: HFn‐Pep2‐8 (human H ferritin with Pep2‐8 and a four‐glycine linker fused to the N‐terminus of each subunit) (designed binder; other documents disagree on this pair)

- LDLR at the plasma membrane of HepG2 cells (immunofluorescence, MFI) after 8 h with 7 μg/mL PCSK9 plus 0.1 or 1 μM HFn-Pep2-8; blocks PCSK9 binding to LDLR [2]: 90%
- Dil-LDL uptake by HepG2 cells (MFI) with 7 μg/mL PCSK9 plus 0.1 μM (81.12%) or 1 μM HFn-Pep2-8; blocks PCSK9 binding to LDLR [3]: 117%
- IC50 [4]: 80.3 nM
Substance: HFn‐Pep2‐8 (human H ferritin with Pep2‐8 and a four‐glycine linker fused to the N‐terminus of each subunit) (designed binder)
